Data published in patent US20200277375A1 (ULTRAHUMAN FOUR, published 2020).
Each block holds one binder with its values, some of them ahead of it.

How the values were obtained:
[1] = target: T1, cynomolgus monkey CD47-Fc (cynomolgus monkey, UniProt A0A2K5X523 19-139); experiment: direct specificity ELISA, IgG 10 µg/ml, FIG. 13
T1 construct: Recombinant CD47-Fc; also called cyno CD47-Fc; cCD47-Fc; not shown: Fc part

[2] = target: T2, mouse CD47-Fc (mouse, UniProt Q61735 19-140, limits assumed); experiment: direct specificity ELISA, IgG 10 µg/ml, FIG. 13
T2 construct: Recombinant CD47-Fc; also called mCD47-Fc; mCD37-Fc [sic]; not shown: Fc part
T2 sequence (looked up): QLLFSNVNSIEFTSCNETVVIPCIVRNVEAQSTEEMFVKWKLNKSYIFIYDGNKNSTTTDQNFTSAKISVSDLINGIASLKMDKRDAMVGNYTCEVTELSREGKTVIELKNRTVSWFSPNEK

[3] = target: T3, human CD47-Fc (human, UniProt Q08722 19-139); experiment: direct specificity ELISA, IgG 10 µg/ml, FIG. 13
T3 construct: Recombinant CD47-Fc; also called hCD47-Fc; not shown: Fc part

[4] = target: T2, mouse CD47-Fc; experiment: direct titration ELISA, FIG. 9C
Protocol: (§1) FIG. 9A-FIG. 9C. Direct titration ELISA for designer IgGs binding to human, mouse and cyno CD47-Fc proteins. Chimeric anti-CD47 (mVH/mVL), designer A-D5-derived clones in human IgG1null format were titrated (in μg/ml) in a direct binding ELISA against human (FIG. 9A), cyno (FIG. 9B) and mouse (FIG. 9C) CD47-Fc proteins. […] In the figure legend, “IgG1NI” refers to IgG1 null isotype.
(§2) To coat Greiner Bio-One High bind ELISA plates, target proteins were diluted to 1 μg/ml in carbonate buffer and added at 100 μl per well, at 4° C., o/n. Coated plates were washed 3× with PBS pH7.4, blocked with 1% BSA in PBS (380 μl/well) for 1 hr at RT, then washed 3× with PBS-Tween 20 (PBST). CD47 antibodies (100 μl/well; diluted in PBST) were then added and then incubated 1 hr at RT. Plates were then washed 3× with PBST and goat anti-human kappa chain-HRP added (100 μl/well) at RT, for 1 hr. Plates were then washed 3× with PBST and twice with PBS before the addition of 100 μl TMB per well. Reactions were stopped by adding 100 μl 2M H₂SO₄/well and OD was read on a plate reader at 450 nm.

[5] = target: T3, human CD47-Fc; experiment: direct titration ELISA, FIG. 9A
Protocol: as §1, §2

[6] = target: T1, cynomolgus monkey CD47-Fc; experiment: direct titration ELISA (FIG. 11) or CD47-SIRPα competition ELISA (FIG. 12)
Protocol: as §2
(§3) A competition ELISA assay was established to examine the capacity of optimized leads to block the binding interaction of CD47 with SIRPα. To coat Greiner Bio-One High bind ELISA plates, 10 μg/ml human SIRPα-Fc in carbonate coating buffer was added at 100 μl per well, at 4° C., o/n. Coated plates were washed 3× with PBS pH7.4, blocked with 1% BSA in PBS (380 μl/well) for 1 hr at RT, then washed 3× with PBS-Tween 20 (PBST). Biotinylated human, mouse or cyno CD47-Fc was then added at 0.2 μg/ml in PBS, 100 μl per well, at room temperature for 60 minutes with or without the addition of competing IgGs. Plates were then washed 3× with PBST and Streptavidin-HRP added (100 μl/well) at room temperature, for 1 hr. Plates were then washed 3× with PBST and twice with PBS before the addition of 100 μl TMB per well. Reactions were stopped by adding 100 μl 2M H₂SO₄/well and OD was read on a plate reader at 450 nm.

[7] = target: T2, mouse CD47-Fc; experiment: as above
Protocol: as §2, §3

[8] = target: T3, human CD47-Fc; experiment: as above
Protocol: as §2, §3

[9] = target: T2, mouse CD47-Fc; experiment: direct titration ELISA, FIG. 18C
Protocol: (§4) FIG. 18A-FIG. 18C. Direct titration ELISA for A-D5.16 and A-D5.16-DI designer IgGs binding to human, mouse and cyno CD47-Fc proteins. Chimeric anti-CD47 (mVH/mVL), designer A-D5.16 and A-D5.16-DI clones in human IgG1null format were titrated (in μg/ml) in a direct binding ELISA against human (FIG. 18A), cyno (FIG. 18B) and mouse (FIG. 18C) CD47-Fc proteins.
as §2

[10] = target: T3, human CD47-Fc; experiment: direct titration ELISA, FIG. 18A
Protocol: as §4, §2

[11] = target: T2, mouse CD47-Fc; experiment: direct titration ELISA, FIG. 3
Protocol: (§5) FIG. 3A-FIG. 3H. Direct titration ELISA for IgG binding to human, mouse and cyno CD47-Fc proteins. Chimeric anti-CD47 (mVH/mVL), library-derived clones in human IgG1 null format were titrated (in μg/ml) in a direct binding ELISA against human, mouse and cyno CD47-Fc proteins (FIG. 3A-FIG. 3H). […] Clone TTP lost almost all binding function.
as §2

[12] = target: T3, human CD47-Fc; experiment: direct titration ELISA, FIG. 3
Protocol: as §5, §2

[13] = target: T2, mouse CD47-Fc; experiment: direct specificity ELISA, IgG 1 µg/ml, FIG. 5A
Description: FIG. 5A-FIG. 5G. Binding specificity analyses for prioritized lead clones. Off-target homologue binding risk for mVH/mVL in IgG1 (FIG. 5A) and IgG1null (FIG. 5B) format and library-derived leads A-D5 (FIG. 5C), VH-A1/VL-B1 (FIG. 5D), F-E7 (FIG. 5E), D-H3 (FIG. 5F), and G-B6 (FIG. 5G) in IgG1null format was examined by direct ELISA on CD47-Fc orthologs and a panel of 14 human immunoglobulin superfamily proteins as labelled on each X-axis (“B” refers to blank). Binding to human, cyno and murine CD47-Fcs (h/c/mCD47-Fc) was performed at an IgG concentration of 1 μg/ml. Binding to all other proteins was performed at an IgG concentration of 10 μg/ml.
To ensure that that lead clones had not suffered from loss of target specificity during the mutation and reselection process; lead and control IgG1 clones were tested for binding to a panel of 14 purified human proteins from the immunoglobulin superfamily (FIG. 5).

T3 sequence (Q08722 19-139 limits assumed): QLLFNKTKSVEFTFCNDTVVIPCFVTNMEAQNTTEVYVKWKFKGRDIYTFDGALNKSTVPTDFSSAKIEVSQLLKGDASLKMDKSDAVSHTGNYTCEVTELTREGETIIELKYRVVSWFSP

- OD450 nm [1]: > 2 OD450 nm
- OD450 nm [2]: > 2 OD450 nm
- OD450 nm [3]: > 2 OD450 nm
B1: A-D5.4 in human IgG1null format (antibody, V domains shown)
VH: EVQLVQSGAEVKKPGESLKISCKGSGYTFTNYYIFWVRQMPGKGLEWMGIINPVDGDTNYNPSFQGQVTISADKSISTAYLQWSSLKASDTAMYYCARGGYTMDRWGQGTLVTVSS
VL: DIVMTQSPLSLPVTPGEPASISCRSSQSLLHSNGYNYLHWYLQKPGQSPQLLIYKVSNRLSGVPDRFSGSGSGTDFTLKISRVEAEDVGVYYCFQNTHTPRTFGQGTKVEIK
notes: Designer clone from A-D5; IgG1null; also called A-D.4

- binding result [4]: binds
- binding result [5]: binds
B2: A-D5.8 in human IgG1null format (antibody, V domains shown)
VH: EVQLVQSGAEVKKPGESLKISCKGSGYTFTNYYIFWVRQMPGKGLEWMGIINPVDGDTNYNPSFQGQVTISADKSISTAYLQWSSLKASDTAMYYCARGGYTMDRWGQGTLVTVSS
VL: DIVMTQSPLSLPVTPGEPASISCRSSQSLLHSQGYTYLHWYLQKPGQSPQLLIYKVSNRLSGVPDRFSGSGSGTDFTLKISRVEAEDVGVYYCFQNTHTPRTFGQGTKVEIK
notes: Designer clone from A-D5; IgG1null

- OD450 nm [1]: > 2 OD450 nm
- OD450 nm [2]: > 2 OD450 nm
- OD450 nm [3]: > 2 OD450 nm
- fold reduction in potency versus A-D5 and mVL/mVH [6]: ~3 fold
- fold reduction in potency versus A-D5 and mVL/mVH [7]: ~3 fold
- fold reduction in potency versus A-D5 and mVL/mVH [8]: ~3 fold
B3: A-D5.16 in human IgG1null format (antibody, V domains shown)
VH: EVQLVQSGAEVKKPGESLKISCKGSGYSFTNYYIFWVRQMPGKGLEWMGIINPVDGDTRYSPSFQGQVTISADKSISTAYLQWSSLKASDTAMYYCARGGYTMDRWGQGTLVTVSS
VL: DIVMTQSPLSLPVTPGEPASISCRSSQSLLHSAGYNYLHWYLQKPGQSPQLLIYKVSNRLSGVPDRFSGSGSGTDFTLKISRVEAEDVGVYYCFQNTHTPRTFGQGTKVEIK
notes: Designer clone from A-D5.4; IgG1null; also called A-D.16

- binding result [4]: binds
- binding result [5]: binds
B4: A-D5.2 in human IgG1null format (antibody, V domains shown)
VH: EVQLVQSGAEVKKPGESLKISCKGSGYSFTNYYIFWVRQMPGKGLEWMGIINPVDGDTRYNPSFQGQVTISADKSISTAYLQWSSLKASDTAMYYCARGGYTMDRWGQGTLVTVSS
VL: DIVMTQSPLSLPVTPGEPASISCRSSQSLLHSNGYTYLHWYLQKPGQSPQLLIYKVSNRLSGVPDRFSGSGSGTDFTLKISRVEAEDVGVYYCFQNTHTPRTFGQGTKVEIK
notes: as for B2

- binding result [9]: binds
- binding result [10]: binds
B5: A-D5.16-DI in human IgG1null format (antibody, V domains shown)
VH: EVQLVQSGAEVKKPGESLKISCKGSGYSFTNYYIFWVRQMPGKGLEWMGIINPVDGDTRYSPSFQGQVTISADKSISTAYLQWSSLKASDTAMYYCARGGYTMDRWGQGTLVTVSS
VL: DIVMTQSPLSLPVTPGEPASISCRSSQSLLHSAGYNYLHWYLQKPGQSPQLLIYKVSNRFSGVPDRFSGSGSGTDFTLKISRVEAEDAGVYYCFQNTHTPRTFGQGTKVEIK
notes: Deimmunised light chain paired with the A-D5.16 VH; IgG1null

- binding result [11]: binds
- binding result [12]: binds
B6: MH (Maximally Humanized) in human IgG1null format (antibody, V domains shown)
VH: EVQLVQSGAEVKKPGESLKISCKGSGYSFTNYYIFWVRQMPGKGLEWIGIINPVDGDTRYSPSFQGQVTISADKSISTAYLQWSSLKASDTAMYYCARGGYTMDIWGQGTLVTVSS
VL: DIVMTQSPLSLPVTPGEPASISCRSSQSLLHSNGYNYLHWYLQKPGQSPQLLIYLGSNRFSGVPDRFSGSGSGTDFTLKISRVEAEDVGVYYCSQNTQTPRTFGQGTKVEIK
notes: Designer clone; IgG1null, kappa; also called designer clone MH

- binding result [13]: binds
B7: mVH/mVL (chimeric VxP037) in human IgG1 format (antibody, V domains shown)
VH: EVQLQQFGAELVKPGASMKLSCKASGYTFTNYYVFWVKQRPGQGLEWIGDINPVNGDTNFNEKFKNKATLTVDKSSTTTYLQLSSLTSEDSAVYYCTRGGYTMDYWGQGTLVTVSS
VL: DVVMTQTPLSLSVSLGDQASISCRSSQSLVHSNGNTYLHWYLQKPGQSPKLLIYKVSYRFSGVPDRFSGSGSGTDFTLKISRVEAEDLGVYFCSQNTHVPRTFGQGTKVEIK
notes: also called mVH/mVL in IgG1
